Legend:
mouse NGF = target: T1, mouse NGF (mouse, UniProt P01139 122-241, limits assumed); test: ELISA, CHO supernatant on coated NGF, anti-canine IgG-HRP
T1 construct: Coated on ELISA plates; also called murine NGF
Experimental: Combinations of caninised heavy and light chain cDNAs were transfected into CHO cells, the supernatants harvested and reacted in ELISA format with either canine or murine NGF. Following incubation and wash steps, the bound canine antibody was detected by reactivity with a goat-anti canine IgG specific polyclonal antibody linked to horseradish peroxidase (HRP) and developed using TMB. The optical density of the resulting product was measured at 450 nm and compared with that from mock empty vector transfected supernatant (denoted as “Mock” in FIG. 1).

[1] = target: T2, complement C1q (from human serum) (human, UniProt P02745 23-245; P02746 28-253; P02747 29-245); test: C1q ELISA: antibody captured on mouse NGF-coated plate, human serum, anti-C1q-HRP
T2 construct: Native C1q in human serum diluted 1/100
Experimental: CHO cell transfectant supernatants from Example 2 were incubated with plates coated with […] NGF to capture the antibodies. The plates were washed and then incubated with human serum and bound complement C1q was measured by binding of anti-human C1q polyclonal antibody HRP and developed as above.
Plates were coated with 100 μl/well of 5 μg/ml mouse NGF and blocked with 5% BSA/PBS. Coated wells were incubated for 1 hour at room temperature with cell culture supernatants, containing recombinant caninised anti-NGF IgG, diluted in PBS/1% BSA (100 μl/well). The plates were washed and incubated for 1 hour at room temperature with 100 μl/well of human serum diluted 1/100 in veronal buffered saline containing 0.5 mM MgCl₂, 2 mM CaCl₂, 0.05% Tween-20, 0.1% gelatin and 0.5% BSA. After washing, plates were incubated with 100 μl of a 1/800 dilution of sheep anti-C1q-HRP (Serotec) in PBS/1% BSA. After washing, plates were developed by the addition of 100 μl TMB substrate (Thermo Scientific). Development was stopped by the addition of 100 μl of 2N H₂SO₄ and absorbance read at 450 nm.

T2 sequence (P02745 23-245 limits assumed, chain 1 of 3): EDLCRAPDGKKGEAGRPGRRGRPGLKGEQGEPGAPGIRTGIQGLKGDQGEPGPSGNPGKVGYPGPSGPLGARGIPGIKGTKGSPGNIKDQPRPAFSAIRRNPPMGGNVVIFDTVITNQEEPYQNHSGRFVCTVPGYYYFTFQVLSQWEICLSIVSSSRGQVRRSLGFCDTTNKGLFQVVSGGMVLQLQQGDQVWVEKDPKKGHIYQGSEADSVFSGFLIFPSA
T2 sequence (P02746 28-253 limits assumed, chain 2 of 3): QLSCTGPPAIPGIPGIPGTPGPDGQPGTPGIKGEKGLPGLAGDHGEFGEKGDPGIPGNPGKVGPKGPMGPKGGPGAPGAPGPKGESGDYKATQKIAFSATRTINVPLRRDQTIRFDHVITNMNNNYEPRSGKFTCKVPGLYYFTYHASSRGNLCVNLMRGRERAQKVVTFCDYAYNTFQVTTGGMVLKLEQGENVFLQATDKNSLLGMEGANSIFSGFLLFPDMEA
T2 sequence (P02747 29-245 limits assumed, chain 3 of 3): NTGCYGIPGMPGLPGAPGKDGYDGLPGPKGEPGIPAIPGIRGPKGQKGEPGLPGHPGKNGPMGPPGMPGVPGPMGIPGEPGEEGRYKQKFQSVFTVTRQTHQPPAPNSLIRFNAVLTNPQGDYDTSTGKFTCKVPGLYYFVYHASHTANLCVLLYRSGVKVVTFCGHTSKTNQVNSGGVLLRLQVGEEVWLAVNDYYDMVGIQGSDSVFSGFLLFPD
T1 sequence (P01139 122-241 limits assumed): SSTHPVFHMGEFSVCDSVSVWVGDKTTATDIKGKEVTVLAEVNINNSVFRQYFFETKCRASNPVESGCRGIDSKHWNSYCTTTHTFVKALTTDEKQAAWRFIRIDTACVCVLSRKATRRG

B1: caninised anti-NGF antibody comprising the caN-HCA heavy chain and caN-kLC light chain (antibody)
heavy: EVQLVESGGDLVNPGGTLTLSCVVSGFSLTNNNVNWVRQALGRGLEWVGGVWAGGATDYNSALKSRLTITRDTSKSTVFLKMHSLQSEDTATYYCARDGGYSSSTLYAMDAWGQGTLVTVSSASTTAPSVFPLAPSCGSTSGSTVALACLVSGYFPEPVTVSWNSGSLTSGVHTFPSVLQSSGLHSLSSMVTVPSSRWPSETFTCNVVHPASNTKVDKPVFNECRCTDTPPCPVPEPLGGPSVLIFPPKPKDILRITRTPEVTCVVLDLGREDPEVQISWFVDGKEVHTAKTQSREQQFNGTYRVVSVLPIEHQDWLTGKEFKCRVNHIDLPSPIERTISKARGRAHKPSVYVLPPSPKELSSSDTVSITCLIKDFYPPDIDVEWQSNGQQEPERKHRMTPPQLDEDGSYFLYSKLSVDKSRWQQGDPFTCAVMHETLQNHYTDLSLSHSPGK
light: DIQMTQSPASLSLSQEEKVTITCRASEDIYNALAWYQQKPGQAPKLLIYNTDTLHTGVPSRFSGSGSGTEYSLTINSLESEDVAVYFCQHYFHYPRTFGAGTKVELKRNDAQPAVYLFQPSPDQLHTGSASVVCLLNSFYPKDINVKWKVDGVIQDTGIQESVTEQDKDSTYSLSSTLTMSSTEYLSHELYSCEITHKSLPSTLIKSFQRSECQRVD
notes: Tested as CHO cell transfectant supernatant; also called A-HCA; caN-HCA+caN-kLC1
B1: binds (mouse NGF); no binding [1].
